Test results reported in patent publication US20240254229A1 (Molecular Partners, published 2024).

T1: human scCD3εγ (scCD3εγ_Avi-Bio) (human, biotin on the C-terminal Avi-tag (in vitro, BirA) where the biotinylated form was used)
T1 construct: Used for all SPR and HTRF results on human CD3; also called recombinant human CD3; human CD3
T1 chain: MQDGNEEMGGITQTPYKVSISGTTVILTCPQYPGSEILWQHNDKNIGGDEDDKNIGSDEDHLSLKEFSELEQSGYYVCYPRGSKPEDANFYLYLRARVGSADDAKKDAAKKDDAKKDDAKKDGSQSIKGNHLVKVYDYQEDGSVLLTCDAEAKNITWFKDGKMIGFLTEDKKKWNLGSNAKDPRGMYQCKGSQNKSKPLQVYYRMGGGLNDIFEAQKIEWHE

T2: biotinylated extracellular domains of human CD123 (uniprot ID 26951), Fc format (human, UniProt P26951 19-305, biotinylated)
T2 construct: extracellular domain
T2 sequence (looked up): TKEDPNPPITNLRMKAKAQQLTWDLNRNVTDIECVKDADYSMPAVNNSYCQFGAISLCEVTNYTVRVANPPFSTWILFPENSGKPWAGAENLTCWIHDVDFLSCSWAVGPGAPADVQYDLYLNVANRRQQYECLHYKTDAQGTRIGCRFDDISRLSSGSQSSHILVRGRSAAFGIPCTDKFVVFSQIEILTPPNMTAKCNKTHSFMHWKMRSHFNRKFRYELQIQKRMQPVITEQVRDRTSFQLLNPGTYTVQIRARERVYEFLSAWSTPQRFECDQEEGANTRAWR


Tests used:
[1] = target: T3, biotinylated extracellular domains of human CD33 (Speed BioSystems, cat #YCP2045) (human, UniProt P20138 18-259, biotinylated); test: SPR (ProteOn), biotinylated target on chip
T3 construct: extracellular domain
Experimental: (§1) Briefly, biotinylated human scCD3εγ was diluted in PBST (PBS, pH 7.4 containing 0.005% Tween 200) and coated on a NLC chip (BioRad) to a level of around 700-1400 resonance units (RU). The interaction of ankyrin repeat protein and human CD3 was then measured by injecting 300 μl running buffer (PBS, pH 7.4 containing 0.005% Tween 200) containing serial dilutions of ankyrin repeat proteins covering a concentration range between 64 nM and 4 nM for multi-trace SPR measurements, followed by a running buffer flow for at least 10 minutes at a constant flow rate of 60 μl/min (off-rate measurement). The regeneration was performed using 30 μl of 10 mM Glycine pH 2. The signals (i.e. resonance unit (RU) values) of the interspots and a reference injection (i.e. injection of running buffer only) were subtracted from the RU traces obtained after injection of ankyrin repeat protein (double-referencing). While binding was too weak for DARPin® protein #7, binding parameters (KD, on-rate, off-rate) against CD3 were determined for affinity matured constructs. On-rates (kₒₙ) and dissociation constants (KD) are given only as approximation because binding equilibrium was not appropriately reached even at highest samples concentration, leading to non-optimal fits for on-rates.
(§2) The binding affinities of two purified ankyrin repeat proteins on recombinant human CD33 and CD123 target respectively were analyzed using a ProteOn instrument (BioRad) and the measurement was performed according standard procedures known to the person skilled in the art. For that, DARPin® protein #25 (with binding specificity for CD33 and CD3), DARPin® protein #26 (with binding specificity for CD123 and […]) of the invention were subcloned and expressed as described above into derivatives of the pQE30 (Qiagen) expression vector, containing an N-terminal His-tag, CD33 or CD123 binding ankyrin repeat domains respectively, followed by one of the four CD3 specific ankyrin repeat protein constructs. The following steps were performed as described in A above. Briefly, biotinylated extracellular domains of human CD33 (provided by Speed BioSystems, Lot no cat #YCP2045) as target protein was used for the assessment of DARPin® protein #25 and biotinylated extracellular domains of human (uniprot ID 26951) for the assessment of DARPin® protein #26 accordingly.

[2] = target: T4, human CD3 on primary human pan-T cells (human, UniProt P07766 23-207; P09693 23-182; P04234 22-171; P20963 22-164); test: Mirrorball cytometry on primary human pan-T cells, 600 µM HSA
T4 construct: whole, on cells; Native complex on T cells isolated from PBMC; also called CD3 on Pan-T cells
Experimental: The determination of CD3 binding was performed with primary human T cells using Mirrorball laser scanning imaging cytometry. Therefore, primary T cells were isolated from human peripheral blood mononuclear cells (PBMCs) using a pan-T cell purification kit (Miltenyi Biotec). A titration of DARPin® protein #7, DARPin® protein #8 and DARPin® protein #9 and DARPin® protein #10, formatted into a trispecific format (including CD33 and CD123 binding ankyrin repeat domains), DARPin® protein #11, DARPin® protein #12, DARPin® protein #13 and DARPin® protein #14 UN tetraspecific format (including an additional ankyrin repeat domain binding specifically to human serum albumin) were incubated with 50′000 pan-T cells per well in presence of 600 μM human serum albumin (to mimic physiological serum concentration) for 30 minutes at 4° C. Two benchmark T-cell engagers, AMG330 and flotetuzumab were applied as controls, targeting CD33 or CD123. After washing, CD3 binding was detected by 1:100-diluted anti-penta-His Alexa Fluor 488 antibody (Qiagen). After 30 min incubation at 4° C., cells were washed and resuspended in Cytofix fixation buffer (BD Biosciences) and counterstained by 5 μM DRAQ5 (Abcam) for 15 min at RT. Median of mean fluorescence intensities of Alexa Fluor 488 binding on far-red counterstained cells were measured by Mirrorball using Cellista software (SPT Labtech) and data was plotted using GraphPad Prism 8.

[3] = target: T1, human scCD3εγ (scCD3εγ_Avi-Bio); test: SPR (ProteOn), biotinylated scCD3εγ on NLC chip, DARPin as analyte
Experimental: The binding affinities of four purified ankyrin repeat proteins on recombinant human CD3 target were analyzed using a ProteOn instrument (BioRad) and the measurement was performed according standard procedures known to the person skilled in the art. For that, DARPin® protein #7, DARPin® protein #8 and DARPin® protein #9 and DARPin® protein #10 of the invention were subcloned and expressed as described above into derivatives of the pQE30 (Qiagen) expression vector, containing an N-terminal His-tag, CD33 and CD123 binding ankyrin repeat domains, followed by one of the four CD3 specific ankyrin repeat protein constructs.
as §1
Dissociation constants (KD) were calculated from the estimated on- and off-rates using standard procedures known to the person skilled in the art.

[4] = target: T5, biotinylated extracellular domain of human CD33 (SEQ ID NO: 87), Fc and Avi tagged (human, UniProt P20138 18-259, biotinylated with BirA-GST (Avi tag)); test: crude extract HTRF, 6 nM biotinylated hCD33
T5 construct: also called hCD33; human target hCD33
Source text: Similarly, individual selected ankyrin repeat proteins specifically binding to hCD33 in solution were identified by a Homogeneous Time Resolved Fluorescence (HTRF) assay using crude extracts of ankyrin repeat protein-expressing Escherichia coli cells using standard protocols. Ankyrin repeat protein clones selected by ribosome display were cloned into derivatives of the pQE30 (Qiagen) expression vector (pMPDV045), which contains a C-terminal CD3 binding designed ankyrin repeat protein followed by a Flag tag, transformed into E. coli XL1-Blue (Stratagene), plated on LB-agar (containing 1% glucose and 50 μg/ml ampicillin) and then incubated overnight at 37° C. […]
The extract of each lysed clone was applied as a 1:1000 dilution (final concentration) in PBSTB (PBS supplemented with 0.1% Tween 20® and 0.2% (w/v) BSA, pH 7.4) together with 6 nM (final concentration) biotinylated hCD33 (full-length or splice variant of ECD CD33), 1:400 (final concentration) of anti-strep-Tb HTRF antibody-FRET donor conjugate (Cisbio) and 1:400 (final concentration) of anti-6His-D2 antibody FRET acceptor conjugate (Cisbio) to a well of 384 well plate and incubated for 60 minutes at RT. The HTRF was read-out on a Tecan M1000 using a 340 nm excitation wavelength and a 665±10 nm emission filter. […]

[5] = target: T2, biotinylated extracellular domains of …; test: SPR (ProteOn), biotinylated target on chip
Experimental: as §1, §2

T3 sequence (P20138 18-259): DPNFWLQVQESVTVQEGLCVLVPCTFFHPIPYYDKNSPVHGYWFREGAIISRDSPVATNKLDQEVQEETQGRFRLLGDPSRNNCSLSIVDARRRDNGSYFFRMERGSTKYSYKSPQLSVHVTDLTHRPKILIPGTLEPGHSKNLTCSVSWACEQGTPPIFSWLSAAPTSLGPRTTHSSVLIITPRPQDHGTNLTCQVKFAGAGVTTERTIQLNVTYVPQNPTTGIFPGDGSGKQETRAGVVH
T5 sequence (P20138 18-259 R69G): as the sequence (P20138 18-259) above, with R52G counted along it
T4 sequence (P07766 23-207, chain 1 of 4): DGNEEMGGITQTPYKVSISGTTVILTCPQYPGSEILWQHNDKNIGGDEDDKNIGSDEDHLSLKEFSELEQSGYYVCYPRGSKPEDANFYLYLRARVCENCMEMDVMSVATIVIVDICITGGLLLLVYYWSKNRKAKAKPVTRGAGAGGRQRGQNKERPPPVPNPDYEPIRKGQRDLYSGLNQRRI
T4 sequence (P09693 23-182, chain 2 of 4): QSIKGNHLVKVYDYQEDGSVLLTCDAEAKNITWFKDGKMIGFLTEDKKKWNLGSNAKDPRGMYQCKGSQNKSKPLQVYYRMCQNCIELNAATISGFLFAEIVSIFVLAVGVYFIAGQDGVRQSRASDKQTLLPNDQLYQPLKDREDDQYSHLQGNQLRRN
T4 sequence (P04234 22-171, chain 3 of 4): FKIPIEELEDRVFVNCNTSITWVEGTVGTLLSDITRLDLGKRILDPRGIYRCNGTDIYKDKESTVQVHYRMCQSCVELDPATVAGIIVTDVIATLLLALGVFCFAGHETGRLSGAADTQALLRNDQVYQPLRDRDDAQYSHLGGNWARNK
T4 sequence (P20963 22-164, chain 4 of 4): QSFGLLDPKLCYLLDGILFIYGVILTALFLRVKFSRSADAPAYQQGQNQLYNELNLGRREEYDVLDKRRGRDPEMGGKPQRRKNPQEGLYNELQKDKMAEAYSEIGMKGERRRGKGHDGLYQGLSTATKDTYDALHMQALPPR

Row | EC50 [2] | Kd [3] | koff [3] | kon [3] | binding result [4] | Binder | further results
1 | – | – | – | – | binds | DARPin® protein #38 (designed binder, CD33-specific domain) DLGVKLLRAAFHGQDDEVRILLAAGADVNAKDTDGETPLHYAAQFGHLEIVEVLLKAGADVNAKDAYGATPLHWAAWHGHLEIVEVLLKAGADVNAQDVSGATPADLAAKVGHEDIAEVLQKAA | –
2 | – | – | – | – | binds | DARPin® protein #37 (designed binder, CD33-specific domain) DLGWKLLLAASRGQDDEVRILLAAGADVNAKDIDEGYTPLHIAAYYGHLEIVEVLLKAGADVNAKDRYGKTPLHLAAISGHEDIAEVLLKAGADVNAQDDKGDTPADLAADYGHEDIAEVLQKAA | –

Continued, binder first:

Row | Binder | EC50 [2] | Kd [3] | koff [3] | kon [3] | binding result [4] | further results
3 | DARPin® protein #25 (designed binder, CD33-CD3; not shown: N-terminal His-tag) DLGDKLLLAATSGQDDEVRILLAAGADVNAKDYDGDTPLHLAADEGHLEIVEVLLKAGADVNAKDYSGSTPLHAAAAYGHLEIVEVLLKAGADVNAQDVFGYTPADLAAYVGHEDIAEVLQKAAGSPTPTPTTPTPTPTTPTPTPTGSDLGQKLLEAAWAGQDDEVRILLAAGADVNAKNSRGWTPLHTAAQTGHLEIFEVLLKAGADVNAKNDKRVTPLHLAAALGHLEIVEVLLKAGADVNARDSWGTTPADLAAKYGHGDIAEVLQKLN | – | – | – | – | – | Kd [1]: 7.3 nM; koff [1]: 0.0304 s⁻¹; kon [1]: 4.2e+06 M⁻¹ s⁻¹
4 | DARPin® protein #9 (designed binder, CD123-CD33-CD3 ankyrin repeat protein, no half-life extension; also called DARPin® #9; not shown: N-terminal His-tag) DLGKKLLEAARAGQDDEVRILMANGADVNALDWLGHTPLHLAAYEGHLEIVEVLLKNGADVNAIDDNNGFTPLHLAAIDGHLEIVEVLLKNGADVNAQDKFGKTAFDISIDNGNEDLAEILQKAAGSPTPTPTTPTPTPTTPTPTPTGSDLGDKLLLAATSGQDDEVRILLAAGADVNAKDYDGDTPLHLAADEGHLEIVEVLLKAGADVNAKDYSGSTPLHAAAAYGHLEIVEVLLKAGADVNAQDVFGYTPADLAAYVGHEDIAEVLQKAAGSPTPTPTTPTPTPTTPTPTPTGSDLGQKLLEAAWAGQDDEVRELLKAGADVNAKNSRGWTPLHTAAQTGHLEIFEVLLKAGADVNAKNDKRVTPLHLAAALGHLEIVEVLLKAGADVNARDSWGTTPADLAAKYGHQDIAEVLQKAA | 50 to 100 nM | ~15 nM | 0.0013 s⁻¹ | ~89000 M⁻¹ s⁻¹ | – | –
5 | DARPin® protein #10 (designed binder, CD123-CD33-CD3 ankyrin repeat protein, no half-life extension; also called DARPin® #10; not shown: N-terminal His-tag) DLGKKLLEAARAGQDDEVRILMANGADVNALDWLGHTPLHLAAYEGHLEIVEVLLKNGADVNAIDDNNGFTPLHLAAIDGHLEIVEVLLKNGADVNAQDKFGKTAFDISIDNGNEDLAEILQKAAGSPTPTPTTPTPTPTTPTPTPTGSDLGDKLLLAATSGQDDEVRILLAAGADVNAKDYDGDTPLHLAADEGHLEIVEVLLKAGADVNAKDYSGSTPLHAAAAYGHLEIVEVLLKAGADVNAQDVFGYTPADLAAYVGHEDIAEVLQKAAGSPTPTPTTPTPTPTTPTPTPTGSDLGQKLLEAAWAGQLDEVRILLKAGADVNAKNSRGWTPLHTAAQTGHLEIFEVLLKAGADVNAKTNKRVTPLHLAAALGHLEIVEVLLKAGADVNARDTWGTTPADLAAKYGHRDIAEVLQKAA | 5 to 15 nM | ~6 nM | 0.00041 s⁻¹ | ~82000 M⁻¹ s⁻¹ | – | –
6 | DARPin® protein #26 (designed binder, not shown: N-terminal His-tag) DLGKKLLEAARAGQDDEVRILMANGADVNALDWLGHTPLHLAAYEGHLEIVEVLLKNGADVNAIDDNNGFTPLHLAAIDGHLEIVEVLLKNGADVNAQDKFGKTAFDISIDNGNEDLAEILQKAAGSPTPTPTTPTPTPTTPTPTPTGSDLGQKLLEAAWAGQDDEVRILLAAGADVNAKNSRGWTPLHTAAQTGHLEIFEVLLKAGADVNAKNDKRVTPLHLAAALGHLEIVEVLLKAGADVNARDSWGTTPADLAAKYGHGDIAEVLQKLN | – | – | – | – | – | Kd [5]: 9.5 nM; koff [5]: 0.017 s⁻¹; kon [5]: 1.79e+06 M⁻¹ s⁻¹
